Laboratory results published in patent publication US20240400716A1 (UNIVERSITY OF PITTSBURGH OF THE COMMONWEALTH SYSTEM OF …, published 2024).

Target: T1, human PSMA polypeptide (prostate specific membrane antigen) (human, UniProt Q04609 1-750)
T1 construct: also called PSMA protein
Test: binding to LNCaP cells expressing PSMA
Description: Binding affinity and specificity to a human PSMA polypeptide were tested using LNCaP cells expressing the PSMA protein.

T1 sequence (Q04609 whole entry): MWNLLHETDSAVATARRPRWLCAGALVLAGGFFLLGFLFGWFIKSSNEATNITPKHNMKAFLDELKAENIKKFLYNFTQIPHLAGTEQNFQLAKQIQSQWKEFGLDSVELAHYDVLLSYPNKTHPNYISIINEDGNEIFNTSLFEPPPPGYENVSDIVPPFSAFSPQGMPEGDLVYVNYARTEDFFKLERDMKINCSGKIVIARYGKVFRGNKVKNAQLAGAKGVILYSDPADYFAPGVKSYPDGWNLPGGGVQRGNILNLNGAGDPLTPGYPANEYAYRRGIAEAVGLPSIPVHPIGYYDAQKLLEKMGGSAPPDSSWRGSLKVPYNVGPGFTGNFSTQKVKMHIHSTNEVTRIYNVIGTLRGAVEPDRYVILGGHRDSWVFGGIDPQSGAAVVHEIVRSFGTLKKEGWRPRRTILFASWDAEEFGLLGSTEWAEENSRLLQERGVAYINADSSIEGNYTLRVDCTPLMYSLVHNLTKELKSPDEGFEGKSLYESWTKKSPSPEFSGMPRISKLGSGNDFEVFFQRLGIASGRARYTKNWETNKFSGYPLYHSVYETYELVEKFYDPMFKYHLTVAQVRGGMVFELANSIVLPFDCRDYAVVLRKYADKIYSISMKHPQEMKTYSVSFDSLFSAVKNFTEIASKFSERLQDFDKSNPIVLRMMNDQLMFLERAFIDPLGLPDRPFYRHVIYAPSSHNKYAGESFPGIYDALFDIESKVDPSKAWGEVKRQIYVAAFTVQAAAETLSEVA

Row | Binder | EC50 [nM]
1 | Clone #6 (VH domain) (VHH, Single human VH antibody domain from a phage library, not camelid; also called VH-W5A4) VHH: EVQLVESGGGLVQPGGSLRLSCTVSGFTFSSYAVSWVRQAPGQGLEWVSAIGAGGGTYYADSVKGRFTISRDNSKNTLYLQMNSLRAEDTAVYYCAKDGADWGQGTLVTVSS | 32.7
2 | Clone #9 (VH domain) (VHH, Single human VH antibody domain from a phage library, not camelid; also called VH-4mut) VHH: EVQLVESGGGLVQPGGSLRLSCTVSGFTFDDYAVSWVRQAPGQGLEWVSSIGAGGGTYYADSVKGRFTISRDDSKDTLYLQMNSLRAEDTAVYYCAKDGVDWGQGTLVTVSS | 15.1
3 | Clone #7 (VH domain) (VHH, Single human VH antibody domain from a phage library, not camelid) VHH: EVQLVESGGGLVQPGGSLRLSCTVSGFTFSSYAVSWVRQAPGQGLEWVSAIGAGGGTYYADSVKGRFTISRDNSKNTLYLQMNSLRAEDTAVYYCAKDGVDWGQGTLVTVSS | 8.65
4 | Clone #8 (VH domain) (VHH, Single human VH antibody domain from a phage library, not camelid) VHH: EVQLVESGGGLVQPGGSLRLSCTVSGFTFSSYAVSWVRQAPGQGLEWVSSIGAGGGTYYADSVKGRFTISRDNSKNTLYLQMNSLRAEDTAVYYCAKDGADWGQGTLVTVSS | 10.8
5 | Clone #1 (scFv) (scFv) scFv: QVTLKESGAEVKKPGESLKISCKASGYSFTNYWIGWVRQMPGKGLEWMGIIYPGDSDTRYSPSFQGQVTISADKSISTAYLQWSSLKASDTAMYYCARQGGYYYGMDVWGQGTTVTVSSGGGGSGGSGSGGGGSVPVLTQPHSVSESPGKTVTISCTRSSGSIASNYVQWYQQRPGSSPTTVIYEDNQRPSGVPDRFSGSIDMSSNSASLTISGLRTEDEGDYYCQSYDSRNHVVFGGGTQLTVLG | 6.56
6 | Clone #2 (scFv) (scFv) scFv: QVQLQQSGAEVKKPGESLKISCKGSGYSFTNHWIAWVRQMPGKGLEWMGIIYPGDSDTRYSPSFQGQVTISADKSISTAYLQWSSLKASDTAMYYCARAQVGAFDIWGQGTMVTVSSGGGGSGGSGSSGGGSQSALTQPASVSGSPGQSITISCTRARDDVGGDNFVSWYQQHPGKAPKLMIYDVSNRPSGVSNRFSGSKSGNTASLTISGLQAEDEADYYCSSYTSSSTLPVFGGGTQLTVLG | 8.97
7 | Clone #3 (VH domain) (VHH, Single human VH antibody domain from a phage library, not camelid; also called VH-Z4D2) VHH: EVQLVESGGGVVQPGRSLRLSCAASGFTFSSYAMHWVRQAPGKGLEWVATIYQDGSESEYVDSVKGRFTVSRDNAKNTLYLQMDSLRAEDTATYYCVGRGSTSITPVWGLGTLVTVSS | 4.59
8 | Clone #10 (VH domain) (VHH, Single human VH antibody domain from a phage library, not camelid) VHH: EVQMVESGGGVVQPGRSLRLSCAASGFTFSSYAMHWVRQAPGKGLEWVATIYQDGSESEYVDSVKGRFTVSIDNAKNTLYLQMDSLRAEDTATYYCVGRDSTSITPVWGLGTLVTVSS | 8.7
9 | Clone #4 (VH domain) (VHH, Single human VH antibody domain from a phage library, not camelid; also called VH-Fla; VH-F1a) VHH: EVQLVESGGGVVQPGRSLRLSCAASGFTFSSYAMHWVRQAPGKGLEWVATIYQDGSESEYVDSVKGRFTVSRDDAKNTLYLQMDSLRAEDTATYYCVGRDSTSITPVWGLGTLVTVSS | 3.05
10 | Clone #11 (VH domain) (VHH, Single human VH antibody domain from a phage library, not camelid) VHH: EVQLVESGGGVVQPGRSLRLSCAASGFTFSSYAMHWVRQAPGKGLEWVATIYQDGSESEYVDSVKGRFTVSIDNAKNTLYLQMDSLRAEDTATYYCVGRASTSITPVWGLGTLVTVSS | 1.81
11 | Clone #5 (VH domain) (VHH, Single human VH antibody domain from a phage library, not camelid) VHH: EVQLVESGGGMVQPGRSLRLSCAASGFTFSSYAMHWIRQAPGKGLEWVATIYQDGSESEYVDSVKGRFAVSRDNAKNTLYLQMDSLRAEDTATYYCVGRASASITPVWGLGTLVTVSS | 2.95
